# Experimental data published in the NTF2 design screens of Basanta et al. (2020).
# Assay: protease stability score; higher = more stable; yeast display proteolysis, trypsin and chymotrypsin;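 further: log10 excess protease needed over predicted unfolded state with 0 meaning unfolded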
row,Sequence,protease stability score
1,DEDDRKRVAKEFMDNLNTGNEDEALKLADKDARLRYGDKTLHGREQIKDWLHTLRERIDSIEVHRIEVQGDKVRVRASVVINGKEEMVDINFRMSNGRLEKVTFDPRLDEMLKG,1.44
2,DEDDRRRQARKLASALVTGNHQEVRELADKDVHAEYGDRRYRGREKLDEAAKDMHKQADSLTVRDVKFTGDKVNIDLQLNINGRRLTVSLTAQLENGRFKEIVVQVTDPETLRHVKQ,-0.03
3,DEDDVDRVRNLIHALNKGNPDDVNNQADENVRFVIGDKTFHGKETLRTRIEEQKSHSRYQVDSVHAEARNGQVEVHVNMTMTENGQPRKNTYEIQARVHNGRVKDFRMTESR,-0.336
4,DEDDVNKAHNILKHGDWEKFASQADENVRIHIGNKEVNGRERASEVLKLIRDRVDSEEIKRMSFHGDKVVVDAEQVVNGKKVRFVIRVKAHNGRIKQMDFQFRNEEDKKKFDEAVN,0.477
5,DEDDVQHAQKLVEENDEDKLKRMFPPDARAHIGDKEVHGMDKWADILKTLHHKADSVHFKHVSVSGNSVNVNFVMVVDGQSIEFVLVIDVHNGRARRLRIDFRNEEQQKLFEKLIS,1.3
6,DEDDVRRVAEQIVQALEKGDEQRMMELADPNAKARVGEKDYHGREDLHKIVKELKDDFDHARVESVEVDGDKVVIHMVVKSNGKDRRMIIRFRVHNGKVTEMEFRTG,1.75
7,DEDDVRRVHEMIRAEETNNEHQVKDLMDENARMVVGDQEITGMDHILKFIRETNKEIDIELRLRDVKVSNGNVHVTARVRFTVNGKPVDRSAKMEVQVENGRIQDVQKRFPTEWKRERHK,-0.03
8,DEDDWKKFMKFLKNLRNGDDEQAAKQADPNARFEYGDETIHGREHFRKHVKDTKDHARYSFNLKDYRVTPGRIEARMDVHSMENGRPDSNDVVLILSLSNGRIKKVEMKQVS,0.063
9,DEDDWRKRMKKVVEVLRTGNPDTMVDMVDENAKAKYGDKEYHGREQIHKWMEDRQKRYDHVNVKHMHIQGNKVNISAVYVVNGRSEDRQLQVVFDNGKIKSMRVTEQ,-0.053
10,DEDEARKVMKKWQEVVQKGDPDDVRKLYKPNVKWEAADTRRQGVDVVVEQMKKVQDKGVEFQVRKAKVEGDRFQVVYDVKLGNDTATFTVQVEARGGQIDEVRAKVDEKAYKVMKKG,0.123
11,DEDEARTWANRMRKIIKEGDPKKMRHQLDKDAKAQVGDDTVHGRDKVVQLLQHILEHVDHVEIQHVEAQGNEVDIQVKLTVNGRDDSLKFDIKYHNGRVKTIRVQEQ,-0.084
12,DEDEATKVATNMQEILETGNPDEAAKLADKDVRVVVGDKDVHGSENLKDMMRELRERADHLRVVDMHSHGEKFVLLVIIEHNGRRHQVNIVMTIDNGRIKSLSITSG,1.87
13,DEDEDDKMRKLIKTNNPQEIAQNADPNVEATVGNKTYHGREQMQQIAEIFRTMADHVHVDRVDADNGHVSAHRVITVNGHKVNVKVRFNISNGRIKRQEIDVTSEQDHRELEKNYN,0.162
14,DEDEDIRSWMKQFEEVVKTGDSKHAADMFDKNAKMQYGDKTYHGRDDVKSVLDHLLRRADHVRLELLDVKSNGESVHAVMLITFVVDGQTDSYHVELVFVVDNGRRNLHTATTK,0.872
15,DEDEDKRIQEVLEQNDFETLSKQADENAKVQYGDTEVHGRRKAYEYLRRLKRSIDHIHYHSIHVHNGRAKMTAEAHFNGRKAVFIVVLQFENGRIRMVVFRATDSRIKKIIKEALN,0.988
16,DEDEEETLAQTWIKLMETGDPEQNMENVDPNVKVTYGDKTLHGREQFSDWEKKLHERVDRIEIKKMDVHNGSIRIVVVNDVNGKTKRFVVHLIYENGRLKSAKETDQ,0.413
17,DEDEEKRIRKYIKQQETGDPDKLNKYFDKDVHLHVGDKEVKGDEQANRELEHKFRKLRYSFEVKKLEVSNGKVEVKYHATVESNGKPHTYEVSADATLHNGRLQSQVNNERG,-0.021
18,DEDEERDFEEMWKVFHKGNPDDYKKMIDKDVEIRIGDKTVHGREEIVRQVHHEMNNINFQLQSVDIRVTNGRVEIDVRYVSNVNGRPDTIRYTYHASASNGKLKTAEYRISEDQQNRHRR,-0.273
19,DEDEERKAVERFLDALKTGDPDKFKKLVDPNVNIQVGDKEINGREQYAHEVHRRKKRADHLEVEHVNVKNGKVQIFVVINVDGRSHHYVLDAHIHNGRIVEMKVEHQ,0.08
20,DEDEERKVVHSIMHALEKGDEQKAVDLMDPNVKVIIGDKEISGRERVRDVAQELRKRIDHLRVKTLDVKNGQARAVAEVEHNGQERRIEFNMQLDNGRVKDMRIQER,1.09
21,DEDEERQFAKDLMRAMEKNDPKLLVKLADKDVSINYGEKQVHGKRQAEQLMRDLHKRVDDIKVRHVSMHNGSLTINLVLNVNGHNENLVAIVRVENGRIKSLTFEHR,0.861
22,DEDEKMKRAMKKLNEVQNTGNEKTLANLMDPNARMDIGDKRYHGREQVTTAVKDIQRRVDHVEWRLTDLKQDGDKLDAKADVIFRTNGTQTNRHADMKLRDVNGQLVIVEYVIS,-0.093
23,DEDEKRELARRFAKNFLHGDHDNIRDLADKDVDAQVGDQTFTGTEQLMRVVKEVRDRVDHFNLTSVDVHNGQADIHARAKVNGRDYRVKIRIKIHNGRILHVQFNRR,1.18
24,DEDEKRKAEHLVRDGSFEELKDLMDENAKVRYGDKEFKGREQAQDAMRQMSRAVDSITVKSLDMQGDTVTARAQLTYNGQHYDVVIQMVVNNGRIKQFVVVVRDPKQKRTLENLRQ,0.567
25,DEDEKTKLAEQAKDILQEGNFHEMMHLADENAKVVYGDRRYDGREKVHKVLRDFDDRVDKIDVKRVRVENGRAKIVADVEHDGQRTTVIIHIQAHNGKIRRIRFHTP,0.586
26,DEDEKVRQLVRDLIEALRTNDQKRWVELADKDARLKVGDKSYHGREELAKQMKKLREHVDHVTMRVKRVEVHNGRISVDATLTYDINGKKNHQTVKMQFRRHNGQIRLVQIEME,0.174
